Kd data for one substance are collected here from US20250051409A1, “MODULATORS OF PHOSPHATIDYLSERlNE DECARBOXYLASE AND USE THEREOF” (THE NATIONAL INSTITUTE FOR BIOTECHNOLOGY IN THE NEGEV LTD., priority 2021, published 2025).

For this test, the target named is Human recombinant SMAC (10339-H08E), Sino Biologicals (human) (UniProt Q9NR28). Description: microscale thermophoresis; fluorescently labelled SMAC (1 µM) with purified PSD (78-625 nM). (MST reads how a fluorescent partner responds to local heating, with and without ligand.)
Human recombinant SMAC (10339-H08E), Sino Biologicals (human), sequence (Q9NR28 56-239 limits assumed, stated change not applied): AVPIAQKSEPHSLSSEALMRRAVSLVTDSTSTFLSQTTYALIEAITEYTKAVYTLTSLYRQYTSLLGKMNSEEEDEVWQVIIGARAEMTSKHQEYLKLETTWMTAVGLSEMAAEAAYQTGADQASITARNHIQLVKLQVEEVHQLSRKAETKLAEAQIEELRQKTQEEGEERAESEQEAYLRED

Broadly, the Kd is the equilibrium constant for the complex coming apart. Regarding “Purified recombinant protein (full length) of human phosphatidylserine decarboxylase (PSD), with N-terminal His tag, expressed in E. coli (Acris-OriGene) (from UniProt Q58DH2 60-416) (enzyme)”, the Kd was 246 nM.
